B1: YPL085W 911-924 (peptide)
chain: QPPTGILPLAPLRP
B2: YLR353W 192-205 (peptide)
chain: RGNDESKNGTPPRP
B3: YHR089C 121-134 (peptide)
chain: RFLPKPKVVGPPKP
B4: YBR108W 772-784 (peptide)
chain: QSTKKAPPPVVKP
B5: YHR064C 433-445 (peptide)
chain: QPVIVNTPHLKKP
B6: YPL073C 76-89 (peptide)
chain: RFKYSTNRGIPARP
B7: YNL278W 947-960 (peptide)
chain: QQVPMPILQQPNRP
B8: YML007W 308-321 (peptide)
chain: QVSGTRQSPIPKKP
B9: YDR242W 430-442 (peptide)
chain: RDYYLSFPESERP
B10: YOR196C 186-199 (peptide)
chain: RFSSVKTNRTPSKP
B11: YMR072W 33-46 (peptide)
chain: QLRNELIKQGPKRP
B12: YCR032W 1846-1859 (peptide)
chain: QLTTEVWRKVPMKP
B13: YHR073W 189-202 (peptide)
chain: QSMISTRSTPPARP
B14: YDR122W 674-686 (peptide)
chain: RAVSDFVPGFAKP
B15: YPL125W 1020-1032 (peptide)
chain: QMFLSIQPQEARP
B16: YLL057C 379-391 (peptide)
chain: RHAFRITPQAERP
B17: YLL016W 403-416 (peptide)
chain: QNDLPTGYYEPMKP
B18: YLR287C-A 17-30 (peptide)
chain: QTPKVEKTEKPKKP
B19: YDR365C 307-319 (peptide)
chain: RDESSILPKNYRP
B20: YIL080W 1034-1046 (peptide)
chain: RAIYTITPETSRP
B21: YDR422C 627-640 (peptide)
chain: QVEPTLDEELPKRP
B22: YPL032C 537-550 (peptide)
chain: QRFNNSNNSIPRKP
B23: YOR023C 518-530 (peptide)
chain: RERLRANPTDKKP
B24: YLL029W 24-37 (peptide)
chain: RGTSASHSPRPFRP
B25: YMR302C 753-766 (peptide)
chain: RDRGVLQEIRPAKP
B26: YDR128W 69-82 (peptide)
chain: QVADVQWSPHPAKP
B27: YGR084C 80-92 (peptide)
chain: RDPKTREPLQPRP
B28: YPL042C 7-19 (peptide)
chain: RAQNSYQPMYQRP
B29: YOR264W 128-140 (peptide)
chain: QRKSLRRPTLSKP
B30: YOL040C 61-73 (peptide)
chain: RAAKLAAPENEKP
B31: YDR434W 319-332 (peptide)
chain: QWGVIIINKMPLKP
B32: YHR030C 429-442 (peptide)
chain: QNLPRHDADFPPRP
B33: YPR179C 274-286 (peptide)
chain: RDRLGTLPPDLRP
B34: YIL085C 485-497 (peptide)
chain: REYEKEFPGSYKP
B35: YGL099W 127-140 (peptide)
chain: QRALAKDLIVPRRP
B36: YGR109W-B 1008-1020 (peptide)
chain: RAVYTITPETSRP
B37: YHL009W-B 360-372 (peptide)
chain: RELGLTRPISQKP
B38: YHL004W 115-128 (peptide)
chain: QSSTTTAAATPTKP
B39: YER172C 459-471 (peptide)
chain: QYDEIHIPAPSKP
B40: YDL030W 480-493 (peptide)
chain: QSQLTSIAAVPPKP
B41: YCL008C 172-184 (peptide)
chain: QQEQNTPPLPPKP
B42: YGR116W 858-871 (peptide)
chain: QNSERAAQEFPNKP
B43: YGR165W 94-106 (peptide)
chain: RGQSLEHPVTKKP
B44: YHL007C 201-213 (peptide)
chain: RATPVSTPVISKP
B45: YHR196W 194-206 (peptide)
chain: QMVYIVDPSKRRP
B46: YDL036C 175-187 (peptide)
chain: QVHRHEPPVTSRP
B47: YBR073W 34-47 (peptide)
chain: QMQIPKYENKPFKP
B48: YOR178C 4-16 (peptide)
chain: QTATTLSPAKARP
B49: YNL086W 58-71 (peptide)
chain: REGQVLYDPEPFKP
B50: YPR175W 148-161 (peptide)
chain: QPTERDEYKQPFKP
B51: YDR414C 52-64 (peptide)
chain: QVILTRVPHDIRP
B52: YNL169C 143-155 (peptide)
chain: QVNSLTLPIWVRP
B53: YNL298W 490-503 (peptide)
chain: QSTPQTMRQAPKRP
B54: YDR171W 23-36 (peptide)
chain: QRGQQGYPRQPQRP

The values below come from PMC314469, “Protein Interaction Networks by Proteome Peptide Scanning” (PLoS Biology, 2004).

In this test the target is T1, Abp1 SH3 (ABP1_YEAST), P15891.
T1 chain: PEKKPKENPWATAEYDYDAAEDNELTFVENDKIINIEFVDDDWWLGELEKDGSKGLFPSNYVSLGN
Kind of test: SPOT array.
In turn, B1 showed a normalised SPOT signal, Boehringer light units (BLU); mean over the file's lines of this peptide of 63.4.

B2 showed a normalised SPOT signal, Boehringer light units (BLU); mean over the file's lines of this peptide of 89.4.

B3 displayed a normalised SPOT signal, Boehringer light units (BLU); mean over the file's lines of this peptide of 1660. The same measure for B4: 4860; for B5: 83.3; for B6: 110. As for B7, the normalised SPOT signal, Boehringer light units (BLU); mean over the file's lines of this peptide turned out to be 113. Consider B8, for which the normalised SPOT signal, Boehringer light units (BLU); mean over the file's lines of this peptide turned out to be 172. With B9, the normalised SPOT signal, Boehringer light units (BLU); mean over the file's lines of this peptide was determined as 41. The same measure for B10: 159; for B11: 212. B12: the normalised SPOT signal, Boehringer light units (BLU); mean over the file's lines of this peptide amounted to 897. Consider B13, for which the normalised SPOT signal, Boehringer light units (BLU); mean over the file's lines of this peptide came to 3390. Molecule B14 displayed a normalised SPOT signal, Boehringer light units (BLU); mean over the file's lines of this peptide of 198. The same measure for B15: 310. The same measure for B16: 555; for B17: 15.1; for B18: 33.2.

The molecule B19 came in with a normalised SPOT signal, Boehringer light units (BLU); mean over the file's lines of this peptide of 97.6. The same measure for B20: 49.8; for B21: 58.1; for B22: 627. The same measure for B23: 303; for B24: 168; for B25: 51.

B26: the normalised SPOT signal, Boehringer light units (BLU); mean over the file's lines of this peptide stood at 89.6. On to B27, for which the normalised SPOT signal, Boehringer light units (BLU); mean over the file's lines of this peptide was 297. Take B28: the normalised SPOT signal, Boehringer light units (BLU); mean over the file's lines of this peptide came out at 696.

Regarding B29, the normalised SPOT signal, Boehringer light units (BLU); mean over the file's lines of this peptide was determined as 43. Consider B30, for which the normalised SPOT signal, Boehringer light units (BLU); mean over the file's lines of this peptide was 4.4. The same measure for B31: 62.9. In the case of B32, the normalised SPOT signal, Boehringer light units (BLU); mean over the file's lines of this peptide worked out at 22. Regarding B33, the normalised SPOT signal, Boehringer light units (BLU); mean over the file's lines of this peptide is 201. The same measure for B34: 13.6. In turn, B35 showed a normalised SPOT signal, Boehringer light units (BLU); mean over the file's lines of this peptide of 42100.

For the molecule B36, the normalised SPOT signal, Boehringer light units (BLU); mean over the file's lines of this peptide was determined as 114. The same measure for B37: 2940; for B38: 160; for B39: 40.6. B40 registered a normalised SPOT signal, Boehringer light units (BLU); mean over the file's lines of this peptide of 92.9. Molecule B41 yielded a normalised SPOT signal, Boehringer light units (BLU); mean over the file's lines of this peptide of 16.1. The molecule B42 came in with a normalised SPOT signal, Boehringer light units (BLU); mean over the file's lines of this peptide of 75.2. The molecule B43 displayed a normalised SPOT signal, Boehringer light units (BLU); mean over the file's lines of this peptide of 116. The molecule B44 had a normalised SPOT signal, Boehringer light units (BLU); mean over the file's lines of this peptide of 61.6. The molecule B45 showed a normalised SPOT signal, Boehringer light units (BLU); mean over the file's lines of this peptide of 445.

B46 displayed a normalised SPOT signal, Boehringer light units (BLU); mean over the file's lines of this peptide of 133.

As to B47, the normalised SPOT signal, Boehringer light units (BLU); mean over the file's lines of this peptide came to 316. The same measure for B48: 122; for B49: 72.5; for B50: 19.8. The same measure for B51: 116; for B52: 215. The same measure for B53: 7180; for B54: 333.
